# Experimental data taken from patent US20090169546A1.
# T1: recombinant HMG1 produced in E. coli as calmodulin binding protein (CBP) fusion (human)
# T1 chain: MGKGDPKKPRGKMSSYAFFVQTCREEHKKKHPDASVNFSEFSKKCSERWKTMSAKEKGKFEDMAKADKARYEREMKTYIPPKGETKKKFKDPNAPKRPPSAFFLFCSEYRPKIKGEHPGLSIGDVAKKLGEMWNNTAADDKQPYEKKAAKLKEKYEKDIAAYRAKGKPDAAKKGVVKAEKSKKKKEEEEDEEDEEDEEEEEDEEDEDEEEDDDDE
# B1: anti-HMG1 antibody G2 (antibody, V domains shown)
# VH: EVQLLESGGGLVQPGGSLRLSCAASGFTFSWYKMQWVRQAPGKGLEWVSGISPSGGSTAYADSVKGRFTISRDNSKNTLYLQMNSLRAEDTAVYYCAKMGLFNTGNSYVDYWGQGTLVTVSS
# VL: AQSELTQPPSVSEAPGQRVTISCSGSTSNIGNNAVIWYQQLPGKAPKLLIYYDDLLPSGVSDRFSGSKSGTSGSLAISGLQSEDEADYYCASWDDNLNGPLFGGGTKLTVL
# B2: anti-HMG1 antibody G20 (antibody, V domains shown)
# VH: EVQLLESGGGLVQPGGSLRLSCAASGFTFSWYDMFWVRQAPGKGLEWVSWISPSGGYTKYADSVKGRFTISRDNSKNTLYLQMNSLRAEDTAMYYCARSGLDYYDSSGYLDAFDIWGQGTMVTVSS
# VL: AQDIQMTQSPSSVSASVGDRVTITCRASQDVSIWLAWYQQKPGKAPKLLIFGASRLQSGVPSRFSGSRSGADFTLTIDSVQPEDFASYYCQQADSFPLTFGGGTKVEIK
# B3: anti-HMG1 antibody S17 (antibody, V domains shown)
# VH: EVQLLESGGGLVQPGGSLRLSCAASGFTFSYYDMHWVRQAPGKGLEWVSRISPSGGYTWYADSVKGRFTISRDNSKNTLYLQMNSLRAEDTAVYYCTRGRYTSGWHEYFDPWGQGTLVTVSS
# VL: AQDIQMTQSPSSLSASVGDRVTITCRASQSIGTYLNWYQQKPGTAPKVLIYAASSLQSGVPSRFSGSGSGTDFTLTISSLQPEDFSTYYCQQSYNTPRTFGQGTKLEIK
# Biological target: T1, recombinant HMG1 produced in E. coli as …
# Assay: BIAcore 3000; mAb amine-coupled to CM5, HMG1 injected in two-fold dilutions; steady-state model
# Details: remark: other sources report otherwise
row,Kd,Binder
1,101 nM,B1
2,114 nM,B2
3,331 nM,B3
